Test results taken from publication PMC10843481 (Structure (London, England : 1993), 2023).

Key:
[1] = target: 1TEL-GG-UBA as run in size exclusion chromatography with ubiquitin (human) (UniProt P41212); test: SEC
crystal structure = target: the molecule itself; test: crystal structure

Row | Molecule | percent binding [1] | binding result (crystal structure)
1 | M1-linked-di-ubiquitin (from UniProt P0CG47 1-76; P0CG47 1-76) (natural protein) | 100% | –
2 | M1-linked-tetra-ubiquitin (from UniProt P0CG47 1-76; P0CG47 1-76; P0CG47 1-76; P0CG47 1-76) (natural protein) | 100% | –
3 | M1-linked-tri-ubiquitin (from UniProt P0CG47 1-76; P0CG47 1-76; P0CG47 1-76) (natural protein) | 100% | –
4 | 1TEL-GG-UBA (other, human) IRLPAHLRLQPIYWSRDDVAQWLKWAENEFSLSPIDSNTFEMNGKALLLLTKEDFRYRSPHSGDELYELLQHILGGELQRKIMEVELSVHGVTHQEAQTALGATGGDVVSAIRNLKVDQLFHLSSRSRADAWRILEHYQWDLSAASRYVLARP | – | binds
5 | 1TEL-GSGG-UBA (other, human) IRLPAHLRLQPIYWSRDDVAQWLKWAENEFSLSPIDSNTFEMNGKALLLLTKEDFRYRSPHSGDELYELLQHILGSGGELQRKIMEVELSVHGVTHQEAQTALGATGGDVVSAIRNLKVDQLFHLSSRSRADAWRILEHYQWDLSAASRYVLARP | – | binds
